One assay concerns MCF10A. Description: MTT cytotoxicity test, MCF10A (mammary epithelial cells). It is filed as cell-based. Conditions: for MCF10A mean (IC50): Table 4, mean/SD part; for MCF10A IC50: continuous incubation over 72 h, test MTT. The source says:
(§1) MTT assay is a colorimetric assay used to measure proliferation, viability and cytotoxicity of cells. It consists in decomposition of a yellow tetrazolium salt MTT (4,5-dimethyl-2-thiazolyl)-2,5-diphenyltetrazolium bromide) to the water-insoluble purple dye formazan by mitochondrial enzyme succinate-tetrazolium reductase 1. MTT reduction occurs only in living cells. Data analysis consists in determining IC50 concentration of the protein (in ng/ml), at which the 50% reduction in the number of cells occurs in the population treated compared to control cells. Results were analyzed using GraphPad Prism 5.0 software. The test was performed according to the literature descriptions (Cells, J E, (1998). Cell Biology, a Laboratory Handbook, second edition, Academic Press, San Diego; Yang, Y., Koh, L W, Tsai, J H., (2004); Involvement of viral and chemical factors with oral cancer in Taiwan, Jpn J Clin Oncol, 34 (4), 176-183). Cell culture medium was diluted to a defined density (10^4-10^5 cells per 100 μl). Then 100 μl of appropriately diluted cell suspension was applied to a 96-well plate in triplicates. Thus prepared cells were incubated for 24 h at 37° C. in 5% or 10% CO2, depending on the medium used, and then to the cells (in 100 μl of medium) further 100 μl of the medium containing various concentrations of tested proteins were added. In the case of combination hTRAIL114-281 and p21WAF effector protein, 100 μl of the medium containing mixture of hTRAIL114-281 and p21WAF effector protein in molar ratio 1:1 was added. After incubation of the cells with tested proteins over the period of next 72 hours, which is equivalent to 3-4 times of cell division, the medium with the test protein was added with […] of MTT working solution [5 mg/ml], and incubation was continued for 3 h at 37° C. in 5% CO2. Then the medium with MTT solution was removed, and formazan crystals were dissolved by adding 100 μl of DMSO. After stirring, the absorbance was measured at 570 nm (reference filter 690 nm).
(§2) The results of in vitro cytotoxicity tests are summarized as IC50 values (ng/ml), which corresponds to the protein concentration at which the cytotoxic effect of fusion proteins is observed at the level of 50% with respect to control cells treated only with solvent. Each experiment represents the average value of at least two independent experiments performed in triplicates. As a criterion of lack of activity of protein preparations the IC50 limit of 2000 ng/ml was adopted.
In general terms: Formazan colour is commonly taken as a measure of viable cells.

The next assay deals with A549. Description: MTT cytotoxicity test, A549 (human lung cancer). The format is cell-based. Conditions: for A549 mean (IC50): Table 4, mean/SD part; for A549 IC50: continuous incubation over 72 h, test MTT.
Text: as §1, §2

The test system of another assay is SK-MES-1. Kind of assay: MTT cytotoxicity test, SK-MES-1 (human lung cancer). Conditions: for SK-MES-1 mean (IC50): Table 4, mean/SD part; for SK-MES-1 IC50: continuous incubation over 72 h, test MTT. The format is cell-based.
Text: as §1, §2

For the next assay, the system named is MES-SA/Dx5. Description: MTT cytotoxicity test, MES-SA/Dx5 (multidrug-resistant human uterine sarcoma). The format is cell-based. Conditions: for MES-SA/Dx5 mean (IC50): Table 4, mean/SD part; for MES-SA/Dx5 IC50: continuous incubation over 72 h, test MTT.
Text: as §1, §2
Cells selected for this test included tumor cell lines that are naturally resistant to TRAIL protein (the criterion of natural resistance to TRAIL: IC50 for TRAIL protein >2000), as well as tumor cell lines sensitive to TRAIL protein and resistant to doxorubicin line MES-SA/DX5 as a cancer line resistant to conventional anticancer medicaments.

Another assay concerns MES-SA. Kind of assay: MTT cytotoxicity test, MES-SA (human uterine sarcoma). The format is cell-based. Particulars: for MES-SA mean (IC50): Table 4, mean/SD part; for MES-SA IC50: continuous incubation over 72 h, test MTT.
Text: as §1, §2

A further assay concerns HCT-116. Particulars: for HCT116 mean (IC50): Table 4, mean/SD part; for HCT116 IC50: continuous incubation over 72 h, test MTT.
The test system of assay [1] is TRAIL sensitive cell lines. Description: in vitro cytotoxicity tests, TRAIL sensitive cell lines. It is filed as cell-based. Particulars: continuous incubation over 72 h, test MTT; versus rhTRAIL 95-281 (cell line not given).
Text: as §1, with “nm). […]” for “nm).”

Protocol for HCT-116: Data analysis consists in determining IC50 concentration of the protein (in ng/ml), at which the 50% reduction in the number of cells occurs in the population treated compared to control cells. Results were analyzed using GraphPad Prism 5.0 software. […] Cell culture medium was diluted to a defined density (10^4-10^5 cells per 100 μl). Then 100 μl of appropriately diluted cell suspension was applied to a 96-well plate in triplicates. Thus prepared cells were incubated for 24 h at 37° C. in 5% or 10% CO2, depending on the medium used, and then to the cells (in 100 μl of medium) further 100 μl of the medium containing various concentrations of tested proteins were added. […] After incubation of the cells with tested proteins over the period of next 72 hours, which is equivalent to 3-4 times of cell division, the medium with the test protein was added with 20 ml of MTT working solution [5 mg/ml], and incubation was continued for 3 h at 37° C. in 5% CO2. Then the medium with MTT solution was removed, and formazan crystals were dissolved by adding 100 μl of DMSO. After stirring, the absorbance was measured at 570 nm (reference filter 690 nm).

B1: Ex. 5: fusion protein: 34-amino acid fragment of human fetoprotein at N-terminus of TRAIL95-281, uPA and MMP cleavage sites (protein)
chain: LSEDKLLACGEGAADIIIGHLCIRHEMTPVNPGRVVRPLGLAGTSEETISTVQEKQQNISPLVRERGPQRVAAHITGTRGRSNTLSSPNSKNEKALGRKINSWESSRSGHSFLSNLHLRNGELVIHEKGFYYIYSQTYFRFQEEIKENTKNDKQMVQYIYKYTSYPDPILLMKSARNSCWSKDAEYGLYSIYQGGIFELKENDRIFVSVTNEHLIDMDHEASFFGAFLVG
modifications: synthesized, a fusion protein comprising: a fragment of TRAIL protein, a fragment of human fetoprotein and cleavage sites recognized by uPA and MMP.
notes: fusion protein: 34-amino acid fragment of human fetoprotein at N-terminus of TRAIL95-281, uPA and MMP cleavage sites
Turning to B1, in the assay with MCF10A, the “MCF10A mean (IC50)” value worked out at 8.949 µg/mL. For the same molecule, the “A549 mean (IC50)” value in the assay on A549 came out at 3 µg/mL. Also, the “SK-MES-1 mean (IC50)” value in the assay on SK-MES-1 was determined as 0.07965 µg/mL. Further, in the assay on MES-SA/Dx5, the “MES-SA/Dx5 mean (IC50)” value is 0.01116 µg/mL. Also, in the assay on MES-SA, the “MES-SA mean (IC50)” value worked out at 0.095 µg/mL. In addition, the “HCT116 mean (IC50)” value with HCT-116 was found to be 0.1798 µg/mL.

B2: Ex. 4: fusion protein: 34-amino acid fragment of human fetoprotein at C-terminus of TRAIL121-281, MMP and uPA cleavage sites (protein)
chain: RVAAHITGTRGRSNTLSSPNSKNEKALGRKINSWESSRSGHSFLSNLHLRNGELVIHEKGFYYIYSQTYFRFQEEIKENTKNDKQMVQYIYKYTSYPDPILLMKSARNSCWSKDAEYGLYSIYQGGIFELKENDRIFVSVTNEHLIDMDHEASFFGAFLVGPLGLAGRVVRLSEDKLLACGEGAADIIIGHLCIRHEMTPVNPG
modifications: synthesized, a fusion protein comprising: a fragment of TRAIL protein, a fragment of human fetoprotein and cleavage sites recognized by uPA and MMP.
notes: fusion protein: 34-amino acid fragment of human fetoprotein at C-terminus of TRAIL121-281, MMP and uPA cleavage sites
For B2, in the assay with MCF10A, the “MCF10A IC50” value was over 2 µg/mL. Also, the “A549 IC50” value in the assay on A549 is over 2 µg/mL. In addition, the “SK-MES-1 IC50” value in the assay with SK-MES-1 came to 0.01011 µg/mL. Further, in the assay on MES-SA/Dx5, the “MES-SA/Dx5 IC50” value was 0.01136 µg/mL. In addition, in the assay with MES-SA, the “MES-SA IC50” value came to 0.2053 µg/mL. The “HCT116 IC50” value in the assay on HCT-116 is 0.03225 µg/mL.

B3: Ex. 11: fusion protein: 18-amino acid peptide DD2 from DOC-2/DAB2 with 7 Arg transporting domain at C-terminus of TRAIL95-281, MMP and uPA sites (protein)
chain: TSEETISTVQEKQQNISPLVRERGPQRVAAHITGTRGRSNTLSSPNSKNEKALGRKINSWESSRSGHSFLSNLHLRNGELVIHEKGFYYIYSQTYFRFQEEIKENTKNDKQMVQYIYKYTSYPDPILLMKSARNSCWSKDAEYGLYSIYQGGIFELKENDRIFVSVTNEHLIDMDHEASFFGAFLVGCAACAAACGGGPLGLAGRVVRRRRRRRRGGGFQLRQPPLVPSRKGE
modifications: synthesized, a fusion protein comprising: a fragment of TRAIL protein, a fragment of peptide DD2 derived from DOC-2/DAB2, cleavage sites recognized by uPA and MMP, an arginine transporting domain and a cysteine-alanine-glycine steric linker.
notes: fusion protein: 18-amino acid peptide DD2 from DOC-2/DAB2 with 7 Arg transporting domain at C-terminus of TRAIL95-281, MMP and uPA sites
In the case of B3, the “MCF10A IC50” value in the assay with MCF10A was 0.1333 µg/mL. Also, in the assay with A549, the “A549 IC50” value was found to be 0.257 µg/mL. Further, the IC50 in assay [1] stood at 0.063 µg/mL. In addition, the “SK-MES-1 IC50” value in the assay with SK-MES-1 stood at 0.03348 µg/mL. For the same molecule, the “MES-SA/Dx5 IC50” value in the assay on MES-SA/Dx5 worked out at 0.00885 µg/mL. The “MES-SA IC50” value with MES-SA was 0.1044 µg/mL. Moreover, the “HCT116 IC50” value in the assay with HCT-116 was 0.08429 µg/mL.

B4: Ex. 15: fusion protein: 15-amino acid fragment of PH domain of TCL1 protein with antennapedia sequence at C-terminus of TRAIL121-281, MMP and uPA sites (protein)
chain: RVAAHITGTRGRSNTLSSPNSKNEKALGRKINSWESSRSGHSFLSNLHLRNGELVIHEKGFYYIYSQTYFRFQEEIKENTKNDKQMVQYIYKYTSYPDPILLMKSARNSCWSKDAEYGLYSIYQGGIFELKENDRIFVSVTNEHLIDMDHEASFFGAFLVGGSPLGLAGRVVRDRQIKIWFQNRRMKWKKAVTDHPDRLWAWEKF
modifications: synthesized, a fusion protein comprising: a fragment of TRAIL protein, a fragment of PH domain of TCL1 protein - acting as Akt coactivator, cleavage sites recognized by uPA and MMP, an antennapedia transporting domain and a glycine-cysteine linker.
As for B4, in the assay on MCF10A, the “MCF10A mean (IC50)” value was 1 µg/mL. Further, the “A549 mean (IC50)” value with A549 was 1 µg/mL. Further, the “SK-MES-1 mean (IC50)” value with SK-MES-1 came to 0.0784 µg/mL. For the same molecule, in the assay with MES-SA/Dx5, the “MES-SA/Dx5 mean (IC50)” value stood at 0.3289 µg/mL. In the assay with MES-SA, the “MES-SA mean (IC50)” value was determined as 0.123 µg/mL. In the assay on HCT-116, the “HCT116 mean (IC50)” value is 0.6035 µg/mL.

B5: Ex. 16: fusion protein: hexapeptide inhibitor of E2F with antennapedia sequence at N-terminus of TRAIL121-281, uPA and MMP sites (protein)
chain: FWLRFTKPRRPYRVVRPLGLAGRVAAHITGTRGRSNTLSSPNSKNEKALGRKINSWESSRSGHSFLSNLHLRNGELVIHEKGFYYIYSQTYFRFQEEIKENTKNDKQMVQYIYKYTSYPDPILLMKSARNSCWSKDAEYGLYSIYQGGIFELKENDRIFVSVTNEHLIDMDHEASFFGAFLVG
modifications: synthesized, a fusion protein comprising: a fragment of TRAIL protein, a peptide inhibitor of E2F, cleavage sites recognized by urokinase uPA and metalloprotease MMP and an antennapedia transporting domain.
Turning to B5, the “MCF10A mean (IC50)” value in the assay with MCF10A came to 0.09228 µg/mL. Further, the “A549 mean (IC50)” value in the assay on A549 is 0.04285 µg/mL. The “SK-MES-1 mean (IC50)” value in the assay on SK-MES-1 is 0.003045 µg/mL. For the same molecule, the “MES-SA/Dx5 mean (IC50)” value with MES-SA/Dx5 was 0.001421 µg/mL. In addition, the “MES-SA mean (IC50)” value in the assay with MES-SA turned out to be 0.00846 µg/mL. Also, the “HCT116 mean (IC50)” value in the assay with HCT-116 was found to be 0.01585 µg/mL.

B6: Ex. 7: fusion protein: 8-amino acid fragment of human fetoprotein at C-terminus of TRAIL95-281, cysteine-alanine linker, MMP and uPA cleavage sites (protein)
chain: TSEETISTVQEKQQNISPLVRERGPQRVAAHITGTRGRSNTLSSPNSKNEKALGRKINSWESSRSGHSFLSNLHLRNGELVIHEKGFYYIYSQTYFRFQEEIKENTKNDKQMVQYIYKYTSYPDPILLMKSARNSCWSKDAEYGLYSIYQGGIFELKENDRIFVSVTNEHLIDMDHEASFFGAFLVGCAACAAACPLGLAGRVVREMTPVNPG
modifications: synthesized, a fusion protein comprising: a fragment of TRAIL protein, a fragment of human fetoprotein, cleavage sites recognized by uPA and MMP and a flexible cysteine - alanine linker.
notes: fusion protein: 8-amino acid fragment of human fetoprotein at C-terminus of TRAIL95-281, cysteine-alanine linker, MMP and uPA cleavage sites
For B6, in the assay on MCF10A, the “MCF10A IC50” value was over 2 µg/mL. For the same molecule, the “A549 IC50” value in the assay with A549 is over 2 µg/mL. Also, the IC50 in assay [1] came to 0.105 µg/mL. Further, the “SK-MES-1 IC50” value in the assay with SK-MES-1 turned out to be 0.0366 µg/mL. The “MES-SA/Dx5 IC50” value in the assay on MES-SA/Dx5 is 0.02211 µg/mL. In addition, the “MES-SA IC50” value in the assay with MES-SA was over 2 µg/mL. Moreover, the “HCT116 IC50” value with HCT-116 stood at 0.0635 µg/mL.

In general, IC50 refers to the concentration that gives 50% inhibition.
